According to patent US20240301046A1 (MABWELL THERAPEUTICS, published 2024):
Like-named read-outs stand apart in the source and are kept apart here.

Legend:
[1] = biological target: T1, Aβ1-42 (rPeptide, A-1167-2) (UniProt P05067 672-713); experiment: direct ELISA, coated Aβ1-42
T1 construct: domain: Aβ1-42; also called Abeta 1-42

[2] = biological target: T2, pyroglutamate-modified Aβ (Aβp3-42) (AnaSpec, AS-29907-01) (UniProt P05067 674-713, pyroglutamate at Aβ position 3 (the N-terminus)); experiment: direct ELISA, coated Aβp3-42
T2 construct: domain: Aβp3-42; also called Abeta p3-42

[3] = biological target: T3, biotin-labelled Aβ1-40 monomer (AnaSpec, AS-61483-01) (UniProt P05067 672-711, biotin label, position not stated); experiment: capture ELISA, coated antibody, biotin-Aβ1-40 monomer
T3 construct: domain: Aβ1-40; also called biotin-conjugated Aβ40 monomer; biotin-Aβ monomer

[4] = biological target: T4, HiLyte488 labelled Aβ1-42 protofibrils (UniProt P05067 672-713, HiLyte488 fluorophore on part of the peptides (labelled and unlabelled Aβ1-42 monomers mixed 1:5)); experiment: cell-based or functional assay
[5] = biological target: T1, Aβ1-42 (rPeptide, A-1167-2); experiment: direct ELISA, coated Aβ1-42; remark: listed apart in the source
[6] = biological target: T3, biotin-labelled Aβ1-40 monomer …; experiment: capture ELISA, coated antibody, biotin-Aβ1-40 monomer; remark: listed apart in the source
Protocol: The plate was incubated for 1 h at RT and washed 3 times with PBST. The plate was then incubated with HRP-conjugated streptavidin (Thermo Fisher Scientific, SNN2004) at 1:5000 diluted in 1% BSA for 20 min at RT and washed 3 times. TMB Stabilized Chromogen substrate solution (Life Technologies, SB02) was added to the plate, and the reaction was stopped by adding 1M sulfuric acid. The absorbance at 450 nm was measured in a plate reader.
(§1) A 96-well plate was coated with 5 μg/mL of antibodies overnight at RT. The plate was then treated with diluents of biotin-labelled Aβ₁₋₄₀ monomers (AnaSpec, AS-61483-01, 4-fold serial dilutions with concentrations in the range of 0-1000 nM) for 1 h at RT. The binding of biotin-labelled Aβ₁₋₄₀ monomers with immobilized antibody was detected by HRP-conjugated streptavidin and TMB, as described in Example 2.

[7] = biological target: T1, Aβ1-42 (rPeptide, A-1167-2); experiment: direct ELISA, coated Aβ1-42; remark: listed apart in the source
[8] = biological target: T4, HiLyte488 labelled Aβ1-42 protofibrils; experiment: cell-based or functional assay; remark: listed apart in the source
[9] = biological target: T1, Aβ1-42 (rPeptide, A-1167-2); experiment: direct ELISA, coated Aβ1-42; remark: listed apart in the source
Protocol: Direct ELISA was used to test each antibody's affinity for Aβ₁₋₄₂ and pyroglutamate-modified Aβ (Aβₚ₃₋₄₂). Plates were coated with 0.5 μM of Aβ₁₋₄₂ (rPeptide, A-1167-2) or Aβₚ₃₋₄₂ (AnaSpec, AS-29907-01) for 2 h at 4° C. Diluents of antibodies (3-fold serial dilutions with concentrations in the range of 0-100 nM) were added to the plate for 1 h at RT. Binding of antibody to immobilized Aβ on each plate was detected by HRP-labeled secondary antibody and TMB substrate, as described in Example 2.

[10] = biological target: T3, biotin-labelled Aβ1-40 monomer …; experiment: capture ELISA, coated antibody, biotin-Aβ1-40 monomer; remark: listed apart in the source
Protocol: as §1

B1: 17P04A(hIgG1) (antibody)
heavy: not shown
light: QTVVTQEPSLTVSPGGTVTLTCASSTGAVTSDYYPNWFQQKPGQAPRALIYSASTKHSWTPARFSGSLLGGKAALTLSGVQPEDEADYYCLLYYGGAWVFGGGTKLTVLGQPKAAPSVTLFPPSSEELQANKATLVCLISDFYPGAVTVAWKADSSPVKAGVETTTPSKQSNNKYAASSYLSLTPEQWKSHRSYSCQVTHEGSTVEKTVAPTECS
notes: fully human IgG1 lambda, expressed in CHO cells; also called Fully human 17P04A (hlgG1)
EC50 [1]: 0.062 nM
EC50 [2]: 38.7 nM
EC50 [3]: 33.8 nM

B2: 18P01A(mIgG2a) (antibody)
heavy: EVQLVESGGGLVQPGGSLKLSCAVSGFTFSGSAMHWVRQASGKGLEWVGRIRSKANSYATAYAASVKGRFTISRDDSKNTAFLQMNSLKTEDTAVYYCTSHAPNFDAFDIWGQGTMVTVSSASTKGPSVFPLAPCSRSTSESTAALGCLVKDYFPEPVTVSWNSGALTSGVHTFPAVLQSSGLYSLSSVVTVPSSNFGTQTYTCNVDHKPSNTKVDKTVERKCPPCKCPAPNLLGGPSVFIFPPKIKDVLMISLSPIVTCVVVDVSEDDPDVQISWFVNNVEVHTAQTQTHREDYNSTLRVVSALPIQHQDWMSGKEFKCKVNNKDLPAPIERTISKPKGSVRAPQVYVLPPPEEEMTKKQVTLTCMVTDFMPEDIYVEWTNNGKTELNYKNTEPVLDSDGSYFMYSKLRVEKKNWVERNSYSCSVVHEGLHNHHTTKSFSRTPGK
light: QSVLTQPPSVSAAPGQKVTISCSGSSSNIGNHYVSWYQQLPGTAPKFFIYDNSKRPSGIPDRFSGSKSGTSATLGITGLQTGDEADYYCGTWDSSLSTYVFGTGTKVTVLGQPKAAPSVTLFPPSSEELQANKATLVCLISDFYPGAVTVAWKADSSPVKAGVETTTPSKQSNNKYAASSYLSLTPEQWKSHRSYSCQVTHEGSTVEKTVAPTECS
notes: chimeric: human F(ab')2, mouse IgG2a CH2-CH3, recombinant
ADCP (RFU) [4]: 488000 RFU
EC50 [5]: 0.087 nM
EC50 [6]: 248 nM

B3: 18P01A(hIgG1) (antibody)
heavy: not shown
light: QSVLTQPPSVSAAPGQKVTISCSGSSSNIGNHYVSWYQQLPGTAPKFFIYDNSKRPSGIPDRFSGSKSGTSATLGITGLQTGDEADYYCGTWDSSLSTYVFGTGTKVTVLGQPKAAPSVTLFPPSSEELQANKATLVCLISDFYPGAVTVAWKADSSPVKAGVETTTPSKQSNNKYAASSYLSLTPEQWKSHRSYSCQVTHEGSTVEKTVAPTECS
notes: fully human IgG1 lambda, expressed in CHO cells; also called Fully human 18P01A (hlgG1); fully human 18P01A
fold increase of EC50 against the original chimeric 18P01A [7]: > 800 fold
EC50 [1]: 50 nM
EC50 [2]: 196 nM
EC50 [3]: 917 nM

B4: 17D08A (antibody, V domains shown)
VH: EVQLVESGGGLVQPGGSLKLSCAASGFTFSGSAIHWVRQASGKGLEWVGRIRSKVNSYATAYAASVKGRFTISRDDSKNTAYLQMNSLKTEDTAVYYCTRHAPNFDAFDIWGQGTMVTVSS
VL: QSVLTQPPSVSAAPGQKVTISCSGYSSNIGNHYVSWYQQLPGTAPKFFIYDNNKRPSGIPDRFSGSKSGTSATLGITGLQTGDEADYYCGTWDSSLITYVFGTGTKVTVL
ADCP (RFU) [8]: 194000 RFU
EC50 [9]: 0.075 nM
EC50 [10]: 0.34 nM

B5: 15M13A (antibody, V domains shown)
VH: QVTLKESGPGILQPSQTLSLTCSFSGFSLSTFGMGVGWIRQPSGKGLEWLAHIWWDDDKYYNPALKSRLTISKDTSKNQVFLKIANVDTADTATYYCARLGYYPYWFFDVWGTGTTVTVSS
VL: QSVLTQPPSVSAAPGQKVTISCSGSSSNIGNHYVSWYQQLPGTAPKLLIYDNNKRPSGIPDRFSGSKSGTSATLGITGLQTGDEADYYCGTWDTSLSAVVFGGGTKLTVL
ADCP (RFU) [8]: 273000 RFU
EC50 [9]: 0.038 nM
EC50 [10]: 0.78 nM

B6: 21G10A (antibody, V domains shown)
VH: EVQLVESGGGSVQPGGSLRLSCAASGFTFSSYWMHWVRQAPGKGLVWVSRINSDGSITTYADSVKGRFTISRDNAKNTLYLQMNSLRAEDTAVYYCARGGGSLDYWGQGTLVTVSS
VL: QSVLTQPPSVSAAPGQKVTISCSGSSSNIGNYYVSWYQQLPGTAPKLLIYDNNKRPSGIPDRFSGSKSGTSATLGITGLQTGDEADYYCGTWDSSLSAVVFGGGTKLTVL
ADCP (RFU) [8]: 245000 RFU
EC50 [9]: 0.042 nM
EC50 [10]: 0.02 nM

B7: 17H05A (antibody, V domains shown)
VH: EVQLVESGGGSVQPGGSLRLSCAASGFTFSSYWMHWVRQVPGKGLVWVSRINSDGSITSYADSVKGRFTISRDNAKNTLYLQMNSLRAENTAVYYCARGGGSLDYWGQGTLVTVSS
VL: QSVLTQPPSVSAAPGQKVTISCSGSSSNIGNYYVSWYQQLPGTAPKLLIYDNHKRPSGIPDRFSGSKSGTSATLGITGLQTGDEADYYCGTWDSSLSAVVFGGGTKLTVL
ADCP (RFU) [8]: 279000 RFU
EC50 [9]: 0.051 nM
EC50 [10]: 0.02 nM

B8: 18F06A (antibody, V domains shown)
VH: EVQLVESGGGLVQPGGSLRLSCAASGFTFSSYWMHWVRQAPGKGLVWVSRINRDGSTTSYADSVKGRFTISRDNAKNTLYLQMNRLRAEDTAVYYCARGGGAFDIWGQGTMVTVSS
VL: QSVLTQPPSVSAAPGQKVTISCSGSSSNIGNYYVSWYQQLPGTAPKLLIYDNNKRPSGIPDRFSASKSGTSATLGITGLQTGDEADYYCGTWDDSLSAVVFGGGTKLTVL
ADCP (RFU) [8]: 126000 RFU
EC50 [9]: 0.068 nM

B9: 20O11A (antibody, V domains shown)
VH: EVQLVESGGGLVQPGGSLRLSCAASGFTFSSYWMHWVRQAPGKGLAWVARINSDGSSTSYADSVKGRFTISRDNAKNTLYLQMNSLRAEDTAVYYCARGGGLFDYWGQGTLVTVSS
VL: QSVLTQPPSVSAAPGQKVTISCSGSSSNIGNHYVSWYQQLPGTAPKLLIYDNNKRPSGIPDRFSGSKSGTSATLGITGLQTGDEADYYCGTWDSSLGAVLFGGGTKLTVL
ADCP (RFU) [8]: 257000 RFU
EC50 [9]: 0.05 nM
EC50 [10]: 0.01 nM

B10: 21F12A (antibody, V domains shown)
VH: EVQLAESGGGSVQPGGSLRLSCAASGFTFSSYWMHWVRQVPGKGLVWVSRINSDGSTTTYADSVKGRFTISRDNAKNTLYLQMNSLRAEDTAVYYCARGGGSLDYWGQGTLVTVSS
VL: QSVLTQPPSVSAAPGQKVTISCSGSSSNIGNYYVSWYQQLPGTAPKLLIYDNNKRPSGIPDRFSGSKSGTSATLGITGLRTGDEADYYCGTWDSSLSAVVFGGGTKLTVL
ADCP (RFU) [8]: 262000 RFU
EC50 [9]: 0.048 nM
EC50 [10]: 0.01 nM

B11: 22H10A (antibody, V domains shown)
VH: EMQLVESGGGLVKPGGSLRLSCAASGFTFSSYSMNWVRQAPGKGLEWVSSISTRKNYIYYADSVQGRFIFSRDNAKNALYLQMNSLRAEDSAVYYCTRGGYIRSPNAFDIWGQGTMVTVSS
VL: QTVVTQEPSLTVSPGGTVTLTCASSTGTVTSGYFPNWLQQKPGQAPRALIYSINNKHFWTPARFSGSLLGGKAALTLSGVQPEDEAEYYCLLYYGGAWVFGGGTKLTVL
ADCP (RFU) [8]: 99100 RFU
EC50 [9]: 0.075 nM
EC50 [10]: 0.07 nM
